# Experimental data published in the supplement of paper PMC9170038.
# System: K4 kissing-loop RNA reporter
# Test: apparent KD of K4 kissing-loop reporter; higher = weaker reporter binding
# Settings: Eterna round: R107; input ligand: theophylline 20 uM
# Protocol: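 RNA-MaP round R107: designed RNA switches with theophylline, tryptophan, arginine or FMN aptamers are transcribed on-chip within common flanks. They are titrated with a labelled K4 kissing-loop RNA reporter in RNA-MaP buffer (100 mM Tris pH 7.5, 80 mM KCl, 4 mM MgCl2), without ligand or with the indicated ligand. Median apparent KD per design.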
# 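Further: bound reporter read as fluorescence of individual clusters on recovered sequencing chips by microscopy, with normalized cluster intensities fitted with a binding model.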
row,Sequence,apparent KD of K4 kissing-loop reporter
1,ACCUUUUUUGCCAGUGAUGUUGGACAGGAAGGAGCGGGCAUAAGCCCAGGUAGGUCGCCUGUCAACUUUCUUAUAGCCCUAAGGU [KL-XArg-A17],479 nM
2,GUAAGACCGGGACUCCAGUGAUGUUGGAGGCAGGAUAUCCAGUCGAGGAGAAGGGCCAGGGAUAUCGAGCUGCUCGGUUUGUAGU [Argeis],78.9 nM
3,AAGUGAUGUUGUAGUGAUGUUGUGAUGUUGCAGGAUAUAUAGUGAUGUAGAAGGGUAUGUGCAGUUUUAUUUUUUGAGUGUUGAU [ttytmullin],42.2 nM
4,UGACAUUGCUCAGAUACCAGACCUGAGGAUCACCCAGGUGCCAAAACGUACUAAAUAAAGGUCCCUUGGCAGCUGAGCAAUGUCU [TheoBX 13],101 nM
5,AGAUUCGACACGGCCGCCACUUGUGGUGGAUUAUCCUAUGUCGAACAUGAGUGAUGUUCAUGUACAAGGACCGGGUGUUGAGUCU [KL-XTryp-B6 #analogue],438 nM
6,UUUACCAGUGAUGUUGGCCUAGUAUUUACACGAGGACCGGUACGGCCGCCACUCGCAUUAUCGGACUUUGAUAAGCAUAUUAUAU [theeternabot_sameState_KL_Trp_A_28],384 nM
7,GCAAAACAAACGUAGAGUGGAACACAGAGACGAGGACCGGUACGGCCGCCACUCGACGAGGUUUUCAGUGAUGUUGAAAAUUUAG [Exclusion Tryptophan A GF2],151 nM
8,GCGCGUCAUGUUGGCGGGAACUAAGCCGAUACCAGCCGGGAAACCGGCCCUUGGCAGCGGCGCGCCGGAGUGAUGUUCCGACAGA [#2 Exclusion - Theophylline A Attempt #1 (HarryS)],284 nM
9,UGAUAGGACAGAAGGAGCGGUAGUGAUGUUGCCAAAAGGUUAAGGUGUCAAAAGACACCCUACCAGGUAGGUCGCUGUCCUAUCU,193 nM
10,GUUACGCAUGGAAGGAGCGCACUCCGGUUGAUCAACACAGUGAUGUUGUGGUUCAUUCGAAUGCAGGUAGGUCGCCAUGUGUAAC [Ex Arginine B K4 16],858 nM
11,AUUUAUUACAGAAGGAGCGUGUAUUUAUAAUCAUUUAUCUUAGCGAGUGAUGUUCGCUUUACACAGGUAGGUCGCUGUUUAUUUA [JR_Nu_ExcArginiB_Sub027],133 nM

# Same assay, conditions: Eterna round: R107; input ligand: tryptophan 2.4 mM
row,Sequence,apparent KD of K4 kissing-loop reporter
1,GGCAGUGAUGUUGCCAGUGGCAGAUUAGAAGGAGCGUGGUGAGACACAGGUAGGUCGCUAAUUGAAAUUGCUGUCACUAAAAUGC [#6],212 nM
2,GUGAGGAGUGGUGUUGAUUAGGGAGCGGAAGGAGCGCCGAGGAAGGCAGGUAGGUCGCCGGAUUAUAGUGAUGUUAUGAAGAGGG [ExArg.K],338 nM
3,UGACUUGCCUGAGGAUAUCUAGGAUAUCCAUAAAAGAAAAUAAUAAUCCAGUGAUGUUGGAGAAGGAGAGAAGGCAGGUAAGUCU [KL-XFMN-B17 #DoubleAptamer #SwitchBubble],119 nM
4,CAGAACAUAUAUAGAAACUAUAUAUGAGAUACCAGUCAAAUUAAAGACCCUUGGCAGCUCAGGCGAGUGAUGUUCGCAGGCUAAC [Astros-Gfrank-modulation#2],88.3 nM
5,UGUAUGGACUGAAGGAGCGCUAGGUAUGUGAGUGAUGUUCAUAUAAAUGUAUAAAGGGUUUGGCAGGUAGGUCGCAGUCCAUACU [KL-SSArg B6],188 nM
6,AUCAGCCUCAGAAGGAGCGUGAGUUUUAAGAGGCUGGAGUGAUGUUCCAGACAUAACGACUCACAGGUAGGUCGCUGAGACUAGU [Arg B SS t1],114 nM
7,GGCCCGGGCGCGGCCGCCACUCCCUCGUACCGAAAGGUAUGAUACCGAGUGAUGUUCGGUUGGAGGAGGACCGGGCGCCCGGGCC [#2 Exclusion - Tryptophan B Attempt #4 (HarryS)],152 nM
8,GCCGUACGCAUGGAUACCAGUCUUUCACGACUGGGCAUGGAGUGAUGUUUCGUGAUGCUAGACCCUUGGCAGCCAUGCGUACGGC,175 nM
9,UUUUUAUAAGAGGAUACCAGUACAAAUAAAGUACAUUAAUAGUAGAGUGAUGUUCUAAAGUACCCUUGGCAGCUUAGAUUAAGUU [ExTheophylB.D],117 nM
10,AGGCACGAGCAAGGAUAUUGAGUAGAGUGAUGUUCUGCCUAAGUUGGCUCGUAAGAGCCUUCUUAGCGAGAAGGUGCUCGUGCCU [#2 Same State - FMN A Attempt #27 (HarryS)],665 nM
11,UGAGGAGAAUAUGAUACCAGCAGAGAGAGAGAGGAAGUAUAGUGAUGUUAUAUGAGAGAAUGCCCUUGGCAGCAUAAGAAGAAGG [SSTheophylB.B],125 nM
12,GUACCUUGGAAACAAGGACAGCUCACCGAAGGAGCGCGUGAAAACGCAGGUAGGUCGCGGUAGCGGAGUGAUGUUCCGCGAGGGC [Same State Arginine A GF 20],106 nM
13,GCUCAGGAGUGAUGUUCCAAGUGAUGUUAACGAGGACCGGUACGGCCGCCACUCGAUACGGCCGGACCGUAAGAUAAACUAGAGC [Same State - Tryptophan A (Freestyle 8)],199 nM
14,AAUAAUGAUGUUUAGGAUUUCCGAAUGGAAGGAGCGUGCGAAAGCACAGGUAGGUCGCCAGUGAUGUUGGGACCUGAGCAUCAAA [#SwitchBubble 6 #K4Late],629 nM
15,GAUUGAGGAAACUCGAUCUUAUAUCCUAGGCAGGAUAUGCGGAAACGCAGAAGGGCCACCUAGCAGUGAUGUUGCAAGCGAAAGC [Ex FMN A 5],207 nM
16,UUCUACGUGCAAGGAUAUCCAUACGCUGCCCAGCGGGUAGCGAUAUAUGGAGUGAUGUUCCAUGUAGGAGAAGGUGCACUGUCCU [Atrea],475 nM
17,UUAGAGAUCUCAGGAUAUCAGUGAUGUUGGUGUGAAGAUCUGAGAUAGAAUUCUAUCUCAGAUCAAUGAGAAGGGAGAUCUCAUU [AK3.1 Exc FMN B],168 nM
18,CGCAGUGAUGUUGCUAUUAUUCUUGAUUAACGAGGACCGGUACGGCCGCCACUCGAUUUCUAUCUUAUUUUGUGUUAUGUUGAUU [JR_ExcTryptoA_Sub008],225 nM
19,GUAGCCCUAUGUGAUACCAGACGGUAUAAAAUCCUGGCGGCCAGUGAUGUUGGCCAUCGCGUCCCUUGGCAGCACCAAGGCUGUA [theeternabot_sameState_KL_Theo_B_18],114 nM
20,CAACUACCCGGAAGGAGCGCGGGUGUAAAUCAAAGGGCUUGAGUGAUGUUCAAGCGGAACCCGCAGGUAGGUCGCCGGGAAGCCC [Quaneson],122 nM
21,UCCUGUUGUCAGCCACGAAAGUGGAUUGAUACCAGAGUCGAAAGACUCCCUUGGCAGCGAGUGAUGUUCGCAGCAGGUAAAUAAA [MatMod 4 - Jieux - Exclusion - Theophylline A],178 nM

row,Sequence,apparent KD of K4 kissing-loop reporter
1,GCGGCCCAGCCGGAUACCAGUGACCCGCUGGGAACCGCGGGCCCAGAGUGAUGUUCGGGACACCCUUGGCAGCCGCCUGGGUCGC [#2 Same State - Theophylline B Attempt #18 (HarryS)],320 nM
2,AAUAUAGUGAUGUUAUAUAAGAAGGAGUUACGAGGACCGGUACGGCCGCCACUCGAAACGAGUGAGGGUUUGGGAGAUUGGGCCC [SSTryptA.J],384 nM
3,UGACUACAAAGGAAAUAAUCCUAGUGAUGUUAGGAUAUGCUGAUAAGCAGAAGGAACUGAGAUCGAAAGAUCUCAAAUGUAGUCU [FmnAX 26 Mat Inspired #SwitchBubble #StaticStem #K4Early],88.2 nM
4,GCGAAGUGAUGUUUCGCCAAUAUUUGAUGAAAGGAUAUCUACUUGAAGAGAAGGUUCAUAUGACUCAAUACCUGACUUGGACCCG [theeternabot_sameState_KL_FMN_A_37],74.6 nM
5,GGUUAAUAGGAGGAUACCAGUACGAAUAAAGUACAUUAAUAGUAGAGUGAUGUUCUAAAGUACCCUUGGCAGCUUAGAGUUAGUU [#19 K4 Theophylline B Exclusion],102 nM
6,CCGCGGCAAGCUCCGGAACCCAUAUUCGAUACCAGCCUUAUCACGGGCCCUUGGCAGCGAGCGUUAGUGAUGUUAGCGGCAUGGU [theeternabot_sameState_KL_Theo_A_27],384 nM
7,AAGCAGUCAGAGAGUGAUGUUCUCAAAUAACGAGGACCGGUACGGCCGCCACUCGAAGACUGCAAGUCCUACGAAAAGUAGGACA [Omei inspired 9],74.4 nM
8,CUUGUACAAGUGAUGUUUGUUAUAUCCGAAGGAGCGUCGUACUAGACAGGUAGGUCGCGGAUGAAGAUAGUUUUUUUAAUAUCAU [JR_Nu_SSArginiA_Sub028],533 nM
9,GGUCGAGUGAUGUUCGAUGUUAUGCAUUCAGAGGAUAUAGGAUUGGCUAGAAGGCUGAAUCGAUCUUCGAGUGAUGUUCGAGGAU [Same State FMN A GF 8],128 nM
10,AACUGUCGAGGACAACAUUACUGAGGUGAUACCAGCAUCGAAAGAUGCCCUUGGCAGCACCAACUUGCAGUGAUGUUGCAAGUAA [BrourdMod 9 - Jieux - Exclusion - Theophylline A],314 nM
11,ACCUUUUUUGCCAGUGAUGUUGGACAGGAAGGAGCGGGCAUAAGCCCAGGUAGGUCGCCUGUCAACUUUCUUAUAGCCCUAAGGU [KL-XArg-A17],349 nM
12,GUAAGACCGGGACUCCAGUGAUGUUGGAGGCAGGAUAUCCAGUCGAGGAGAAGGGCCAGGGAUAUCGAGCUGCUCGGUUUGUAGU [Argeis],56.2 nM
13,AAGUGAUGUUGUAGUGAUGUUGUGAUGUUGCAGGAUAUAUAGUGAUGUAGAAGGGUAUGUGCAGUUUUAUUUUUUGAGUGUUGAU [ttytmullin],58.1 nM
14,UGACAUUGCUCAGAUACCAGACCUGAGGAUCACCCAGGUGCCAAAACGUACUAAAUAAAGGUCCCUUGGCAGCUGAGCAAUGUCU [TheoBX 13],65.4 nM
15,AGAUUCGACACGGCCGCCACUUGUGGUGGAUUAUCCUAUGUCGAACAUGAGUGAUGUUCAUGUACAAGGACCGGGUGUUGAGUCU [KL-XTryp-B6 #analogue],492 nM
16,UUUACCAGUGAUGUUGGCCUAGUAUUUACACGAGGACCGGUACGGCCGCCACUCGCAUUAUCGGACUUUGAUAAGCAUAUUAUAU [theeternabot_sameState_KL_Trp_A_28],199 nM
17,GCAAAACAAACGUAGAGUGGAACACAGAGACGAGGACCGGUACGGCCGCCACUCGACGAGGUUUUCAGUGAUGUUGAAAAUUUAG [Exclusion Tryptophan A GF2],199 nM
18,GCGCGUCAUGUUGGCGGGAACUAAGCCGAUACCAGCCGGGAAACCGGCCCUUGGCAGCGGCGCGCCGGAGUGAUGUUCCGACAGA [#2 Exclusion - Theophylline A Attempt #1 (HarryS)],164 nM
19,UGAUAGGACAGAAGGAGCGGUAGUGAUGUUGCCAAAAGGUUAAGGUGUCAAAAGACACCCUACCAGGUAGGUCGCUGUCCUAUCU,179 nM
20,GUUACGCAUGGAAGGAGCGCACUCCGGUUGAUCAACACAGUGAUGUUGUGGUUCAUUCGAAUGCAGGUAGGUCGCCAUGUGUAAC [Ex Arginine B K4 16],825 nM
21,AUUUAUUACAGAAGGAGCGUGUAUUUAUAAUCAUUUAUCUUAGCGAGUGAUGUUCGCUUUACACAGGUAGGUCGCUGUUUAUUUA [JR_Nu_ExcArginiB_Sub027],90.2 nM
